In PMC10120378:
Read-outs that look alike come from different tables or passages of the source.

B1: cruciform DNA (structured_DNA)
DNA 1: CCTAGCAAGGGGCTGCTACCTTTGGTAGCAGCCTGAGCGGTGG
DNA 2: CCACCGCTCAACTCAACTGCTTTGCAGTTGAGTCCTTGCTAGG
B2: linear DNA of random sequence (40 bp) (dsDNA)
DNA 1: CCGACTAAGTACATGTGAGAATTTTGCTGCCTTCGAACCT
DNA 2: AGGTTCGAAGGCAGCAAAATTCTCACATGTACTTAGTCGG

Assays:
Assay in all cases: fluorescence polarization
[1] = molecular target: T1, HUα2 P63A (Escherichia coli (MG1655-derived …, UniProt P0ACF0 1-90, P63A))
[2] = molecular target: T2, HUα2 wild-type (Escherichia coli (MG1655-derived …, UniProt P0ACF0 1-90))
[3] = molecular target: T1, HUα2 P63A; remark: listed apart in the source
[4] = molecular target: T2, HUα2 wild-type; remark: listed apart in the source

Row | Binder | Kd [1] [nM] | Kd [2] [nM] | binding result [3] | Kd [4] [nM]
1 | B1 | 352 | 178 ± 22 | – | –
2 | B2 | – | – | binds | 51 ± 4
